The values that follow come from publication PMC11563578 (eLife, 2024).

The experiment addresses T1, RNA polymerase II subunit Rpb1 (S. cerevisiae, UniProt P04050 1-1733).
T1 construct: Rpb1, largest subunit of yeast RNA polymerase II; source: endogenous, S. cerevisiae; also the Δrpb4 RPB2-HFH strain
Kind of experiment: cross-linking; affinity-purified holo-pol II and ΔRpb4 pol II cross-linked with C1q2/C2q2 Q2linkers in a crosslinker swapping experiment (experiments I and II), pooled, MS; crosslinks identified with pLink2 and Nexus against the 12 pol II subunits. To be noted: both partners purified.

T1 sequence (P04050 whole entry): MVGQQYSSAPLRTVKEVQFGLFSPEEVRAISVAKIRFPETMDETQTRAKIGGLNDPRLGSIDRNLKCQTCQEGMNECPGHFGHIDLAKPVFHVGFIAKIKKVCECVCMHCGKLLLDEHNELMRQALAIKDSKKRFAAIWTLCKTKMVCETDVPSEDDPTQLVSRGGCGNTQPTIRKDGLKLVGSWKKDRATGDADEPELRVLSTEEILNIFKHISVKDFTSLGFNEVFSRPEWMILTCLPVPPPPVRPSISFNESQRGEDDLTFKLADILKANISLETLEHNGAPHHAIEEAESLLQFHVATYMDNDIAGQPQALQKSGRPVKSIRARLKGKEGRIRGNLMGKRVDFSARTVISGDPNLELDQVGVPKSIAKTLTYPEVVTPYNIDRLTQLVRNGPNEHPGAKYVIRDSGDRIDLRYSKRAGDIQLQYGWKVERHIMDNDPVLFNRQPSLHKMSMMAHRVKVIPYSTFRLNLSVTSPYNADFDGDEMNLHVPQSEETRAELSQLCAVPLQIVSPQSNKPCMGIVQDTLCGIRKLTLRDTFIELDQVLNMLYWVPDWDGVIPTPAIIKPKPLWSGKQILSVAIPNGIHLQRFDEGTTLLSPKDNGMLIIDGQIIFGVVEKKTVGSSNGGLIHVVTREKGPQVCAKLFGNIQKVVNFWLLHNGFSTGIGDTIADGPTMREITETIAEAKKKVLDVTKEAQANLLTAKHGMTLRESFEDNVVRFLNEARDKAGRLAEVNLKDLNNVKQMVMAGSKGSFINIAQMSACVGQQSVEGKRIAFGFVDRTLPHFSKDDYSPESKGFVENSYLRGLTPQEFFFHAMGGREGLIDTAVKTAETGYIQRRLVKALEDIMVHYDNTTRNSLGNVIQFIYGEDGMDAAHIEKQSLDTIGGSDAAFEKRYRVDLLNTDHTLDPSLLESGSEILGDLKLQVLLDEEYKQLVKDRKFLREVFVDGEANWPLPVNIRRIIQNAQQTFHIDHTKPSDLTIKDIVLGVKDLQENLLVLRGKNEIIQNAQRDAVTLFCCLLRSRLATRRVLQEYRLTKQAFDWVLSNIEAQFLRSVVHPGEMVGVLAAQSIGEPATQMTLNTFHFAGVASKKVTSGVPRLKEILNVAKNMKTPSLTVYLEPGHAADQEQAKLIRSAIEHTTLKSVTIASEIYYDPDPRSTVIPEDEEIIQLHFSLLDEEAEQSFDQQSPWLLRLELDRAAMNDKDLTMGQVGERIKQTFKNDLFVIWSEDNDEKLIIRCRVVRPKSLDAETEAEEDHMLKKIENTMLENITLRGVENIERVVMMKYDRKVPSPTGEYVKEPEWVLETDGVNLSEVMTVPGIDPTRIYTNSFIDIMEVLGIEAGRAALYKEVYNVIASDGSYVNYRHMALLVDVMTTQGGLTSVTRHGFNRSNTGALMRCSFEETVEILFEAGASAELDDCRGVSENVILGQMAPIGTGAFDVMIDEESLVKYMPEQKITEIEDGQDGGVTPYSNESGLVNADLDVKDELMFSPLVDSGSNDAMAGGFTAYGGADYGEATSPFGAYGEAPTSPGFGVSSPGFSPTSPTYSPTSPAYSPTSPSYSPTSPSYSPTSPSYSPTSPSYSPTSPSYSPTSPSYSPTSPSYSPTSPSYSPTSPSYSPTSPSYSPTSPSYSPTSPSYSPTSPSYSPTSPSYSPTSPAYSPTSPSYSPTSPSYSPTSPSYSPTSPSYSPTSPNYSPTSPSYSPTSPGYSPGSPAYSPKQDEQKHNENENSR

B1: RNA polymerase II subunit Rpb7 (natural protein, S. cerevisiae, UniProt P34087 1-171, looked up)
chain: MFFIKDLSLNITLHPSFFGPRMKQYLKTKLLEEVEGSCTGKFGYILCVLDYDNIDIQRGRILPTDGSAEFNVKYRAVVFKPFKGEVVDGTVVSCSQHGFEVQVGPMKVFVTKHLMPQDLTFNAGSNPPSYQSSEDVITIKSRIRVKIEGCISQVSSIHAIGSIKEDYLGAI
notes: Rpb7, subunit of yeast RNA polymerase II; also called Rbp7; source: endogenous, S. cerevisiae; sub-stoichiometric from the Δrpb4 RPB2-HFH strain
With B1, the binding result is “binds”.

B2: RNA polymerase II subunit Rpb9 (natural protein, S. cerevisiae, UniProt P27999 1-122, looked up)
chain: MTTFRFCRDCNNMLYPREDKENNRLLFECRTCSYVEEAGSPLVYRHELITNIGETAGVVQDIGSDPTLPRSDRECPKCHSRENVFFQSQQRRKDTSMVLFFVCLSCSHIFTSDQKNKRTQFS
notes: Rpb9, subunit of yeast RNA polymerase II; source: endogenous, S. cerevisiae; also the Δrpb4 RPB2-HFH strain
Consider B2, for which the binding result is listed as “binds”.
